Experimental data as given in article PMC3646955.

How the values were obtained:
Test in all cases: purified protein
Assay type in all cases: biochemical, Serratia marcescens
[1] = test system: NC[C@H]1O[C@H](O[C@H]2[C@H](O[C@@H]3O[C@H](CO)[C@@H](O)[C@H]3O)[C@@H](O)[C@H](N)C[C@@H]2N)[C@H](N)[C@@H](O)[C@@H]1O; settings: 500 μM acetyl-CoA, 50 mM HEPES pH 7.5
[2] = test system: NC[C@@H]1O[C@H](O[C@H]2[C@@H](O)[C@H](O[C@@H]3[C@@H](O)[C@H](N)C[C@H](N)[C@H]3O[C@H]3O[C@H](CN)[C@@H](O)[C@H](O)[C@H]3N)O[C@@H]2CO)[C@H](N)[C@@H](O)[C@@H]1O; settings: 500 μM acetyl-CoA, 50 mM HEPES pH 7.5
[3] = test system: CN[C@@H]1[C@@H](O)[C@@H](O[C@@H]2[C@@H](O)[C@H](O[C@H]3OC(CN)=CC[C@H]3N)[C@@H](N)C[C@H]2N)OC[C@]1(C)O; settings: 500 μM acetyl-CoA
[4] = test system: NC[C@H]1O[C@H](O[C@H]2[C@H](O)[C@@H](O[C@H]3O[C@H](CO)[C@@H](O)[C@H](N)[C@H]3O)[C@H](N)C[C@@H]2N)[C@H](N)C[C@@H]1O; settings: 500 μM acetyl-CoA
[5] = test system: CCN[C@@H]1C[C@H](N)[C@@H](O[C@H]2OC(CN)=CC[C@H]2N)[C@H](O)[C@H]1O[C@H]1OC[C@](C)(O)[C@H](NC)[C@H]1O; settings: 500 μM acetyl-CoA
[6] = test system: NCC[C@H](O)C(=O)N[C@@H]1C[C@H](N)[C@@H](O[C@H]2O[C@H](CN)[C@@H](O)[C@H](O)[C@H]2O)[C@H](O)[C@H]1O[C@H]1O[C@H](CO)[C@@H](O)[C@H](N)[C@H]1O; settings: 500 μM acetyl-CoA, 50 mM HEPES pH 7.5, AAC(6′) domain
[7] = test system: O=c1ccn([C@@H]2O[C@H](COP(=O)(O)OP(=O)(O)OP(=O)(O)O)[C@@H](O)[C@H]2O)c(=O)[nH]1; settings: 750 μM SPT, 50 mM Tris-HCl pH 7.5, 10 mM MgCl2, 50 mM KCl, 25 °C
[8] = test system: CN[C@@H]1[C@H](O)[C@H](NC)[C@H]2O[C@@]3(O)C(=O)C[C@@H](C)O[C@H]3O[C@@H]2[C@H]1O; settings: 200 μM ATP, 50 mM Tris-HCl pH 7.5, 10 mM MgCl2, 50 mM KCl, 25 °C
[9] = test system: O=P(O)(O)OP(=O)(O)OP(=O)(O)OC[C@H]1O[C@@H](n2cnc3c(O)ncnc32)[C@H](O)[C@@H]1O; settings: 750 μM SPT, 50 mM Tris-HCl pH 7.5, 10 mM MgCl2, 50 mM KCl, 25 °C
[10] = test system: Nc1ccn([C@@H]2O[C@H](COP(=O)(O)OP(=O)(O)OP(=O)(O)O)[C@@H](O)[C@H]2O)c(=O)n1; settings: 750 μM SPT, 50 mM Tris-HCl pH 7.5, 10 mM MgCl2, 50 mM KCl, 25 °C
[11] = 50 mM HEPES pH 7.5, AAC(6′) domain

NHis6-tagged AAC(6′)-IId(267-463) (Serratia marcescens)
Km [1]: 69.3 ± 4.5 µM | kcat [1]: 5.7 ± 0.12 s⁻¹ | kcat/Km [1]: 82200 ± 5600 M⁻¹ s⁻¹ | Km [2]: 32.1 ± 11.1 µM | kcat [2]: 11.1 ± 1 s⁻¹ | kcat/Km [2]: 346000 ± 124000 M⁻¹ s⁻¹ | Km ([3]; 50 mM HEPES pH 7.5): 4.92 ± 1.14 µM | kcat ([3]; 50 mM HEPES pH 7.5): 5.35 ± 0.27 s⁻¹ | kcat/Km ([3]; 50 mM HEPES pH 7.5): 1.09e+06 ± 260000 M⁻¹ s⁻¹ | Km ([4]; 50 mM HEPES pH 7.5): 14.8 ± 3.4 µM | kcat ([4]; 50 mM HEPES pH 7.5): 3.73 ± 0.25 s⁻¹ | kcat/Km ([4]; 50 mM HEPES pH 7.5): 252000 ± 60000 M⁻¹ s⁻¹ | Km ([5]; 50 mM HEPES pH 7.5): 3.87 ± 0.90 µM | kcat ([5]; 50 mM HEPES pH 7.5): 3.21 ± 0.2 s⁻¹ | kcat/Km ([5]; 50 mM HEPES pH 7.5): 829000 ± 200000 M⁻¹ s⁻¹

NHis10-tagged ANT(3″)-Ii/AAC(6′)-IId (Serratia marcescens)
Km [3, 11]: 2.20 ± 0.60 µM | kcat [3, 11]: 2.93 ± 0.16 s⁻¹ | kcat/Km [3, 11]: 1.33e+06 ± 370000 M⁻¹ s⁻¹ | Km [4, 11]: 7.92 ± 0.53 µM | kcat [4, 11]: 3.84 ± 0.07 s⁻¹ | kcat/Km [4, 11]: 485000 ± 34000 M⁻¹ s⁻¹ | Km [6]: 0.556 ± 0.130 µM | kcat [6]: 2.92 ± 0.1 s⁻¹ | kcat/Km [6]: 5.25e+06 ± 1.25e+06 M⁻¹ s⁻¹ | Km [5, 11]: 1.77 ± 0.41 µM | kcat [5, 11]: 1.91 ± 0.08 s⁻¹ | kcat/Km [5, 11]: 1.08e+06 ± 250000 M⁻¹ s⁻¹

CHis6-tagged ANT(3″)-Ii(1-266) (Serratia marcescens)
Km [7]: 26.2 ± 5.7 µM | kcat [7]: 0.603 ± 0.047 s⁻¹ | kcat/Km [7]: 23000 ± 5300 M⁻¹ s⁻¹ | Km [8]: 0.123 ± 0.015 µM | kcat [8]: 5.13 ± 0.11 s⁻¹ | kcat/Km [8]: 4.15e+07 ± 5.1e+06 M⁻¹ s⁻¹ | Km [9]: 12.6 ± 1.5 µM | kcat [9]: 0.481 ± 0.013 s⁻¹ | kcat/Km [9]: 38100 ± 4500 M⁻¹ s⁻¹ | Km [10]: 33.3 ± 5.6 µM | kcat [10]: 0.709 ± 0.04 s⁻¹ | kcat/Km [10]: 21300 ± 3800 M⁻¹ s⁻¹
